Test results reported in patent publication US20250340643A1.

Experiments:
[1] = target: CTLA-4 (as used in the CTLA-4 binding assay) (human) (UniProt P16410); test: CTLA-4 binding relative to tremelimumab Reference Standard; method not named for this table (competitive ELISA or SPR per the methods)
[2] = target: CTLA4 on the cells of the reporter gene bioassay (human) (UniProt P16410); test: cell-based or functional assay
[3] = target: recombinant FcRn (UniProt P55899); test: SPR, recombinant FcRn immobilized on the sensor; relative to Reference Standard

Sequence of CTLA4 on the cells of the reporter gene bioassay (human) (P16410 36-223): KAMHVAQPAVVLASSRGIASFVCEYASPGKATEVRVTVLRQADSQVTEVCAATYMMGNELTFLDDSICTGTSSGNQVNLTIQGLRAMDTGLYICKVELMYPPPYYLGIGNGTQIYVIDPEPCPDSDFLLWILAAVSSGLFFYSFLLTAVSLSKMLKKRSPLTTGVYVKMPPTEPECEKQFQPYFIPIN
Sequence of CTLA-4 (as used in the CTLA-4 binding assay) (human) (P16410 36-161 limits assumed): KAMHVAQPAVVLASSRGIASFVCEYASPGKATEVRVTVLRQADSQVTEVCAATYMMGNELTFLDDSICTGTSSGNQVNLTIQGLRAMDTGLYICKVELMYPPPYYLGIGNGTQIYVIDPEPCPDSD

Rel. CTLA-4 Binding (%) [1]: 62% | Rel. Potency (%) (reporter gene bioassay) [2]: 78% | Rel. FcRn Binding (%) [3]: 95%
Substance: Tremelimumab IEC Fraction D (acidic peak 1), after pH 9 for 7 days (antibody)
